The text below walks through data of US20220306733A1.

Positions count from the first letter of the chain named.

B1: anti-TIGIT antibody clone 26486 (antibody, V domains shown)
VH: QVQLQESGPGLVKPSETLSLTCAVSGYSISSGYYWAWIRQPPGKGLEWIGSIYHSGSTYYNPSLKSRVTISVDTSKNQFSLKLSSVTAADTAVYYCAIEGANYYDFGYVAFDIWGQGTMVTVSS
VL: EIVMTQSPATLSVSPGERATLSCRASQSVSSNLAWYQQKPGQAPRLLIYGASTRATGIPARFSGSGSGTEFTLTISSLQSEDFAVYYCQQSPPWPRTFGGGTKVEIK
B2: anti-TIGIT antibody clone 29494 (antibody, V domains shown)
VH: QVQLQESGPGLVKPSETLSLTCTVSGGSISSGSYYLAWIRQPPGKGLEWIGSIFRSGSTYYNPSLESRVTISVDTSKNQFSLKLSSVTAADTAVYYCAIEGANFKDFGYVAFDIWGQGTMVTVSS
VL: B1 VL
B3: anti-TIGIT antibody clone 32931 (antibody, V domains shown)
VH: B2 VH with V2L, M120T
VL: B1 VL with Q27K, G50F, S91T, P92S
B4: anti-TIGIT antibody clone 31288 (antibody, V domains shown)
VH: B2 VH with V2L, M120T
VL: B1 VL
B5: anti-TIGIT antibody clone 29499 (antibody, V domains shown)
VH: B2 VH with V2L, G32S, S33R, L36W, F54G, R55T, E66K, A90T, K105R
VL: B1 VL
B6: anti-TIGIT antibody clone 26493 (antibody, V domains shown)
VH: EVQLVESGGGLVQPGRSLRLSCAASGFTFGDYAMHWVRQAPGKGLEWVSGITWNSGSIGYADSVKGRFTISRDNAKNSLYLQMNSLRAEDTALYYCAKPVPKSRGLDVWGQGTMVTVSS
VL: DIQLTQSPSSVSASVGDRVTITCRASQGISSWLAWYQQKPGKAPKLLIYGASSLQSGVPSRFSGSGSGTDFTLTISSLQPEDFATYYCQQAFYLPWTFGGGTKVEIK
B7: anti-TIGIT antibody clone 29523 (antibody, V domains shown)
VH: EVQLVESGGGVVQPGRSLRLSCAASGFTFGSYYMHWVRQAPGKGLEWVAVIWPDGSNKLYADSVKGRFTISRDNSKNTLYLQMNSLRAEDTALYYCAKPVPKSRALDVWGQGTMVTVSS
VL: B6 VL
B8: anti-TIGIT antibody clone 29520 (antibody, V domains shown)
VH: B6 VH with E1Q, G30R, S57L, K102R, S103L
VL: B6 VL
B9: anti-TIGIT antibody clone 29527 (antibody, V domains shown)
VH: B7 VH with E1Q, G30S, Y32S, W52G, P53A, L59Y, K65E, K102R, S103R, A105G
VL: B6 VL
B10: anti-TIGIT antibody clone 29513 (antibody, V domains shown)
VH: QVQLVQSGAEVKKPGSSVKVSCKASGGTFQNYAISWVRQAPGQGLEWMGVIVPIFGTANYAQKFQGRVTVTADESTSTAYMELSSLRSEDTAVYYCARLHLGQKAYYGMDVWGQGTTVTVSS
VL: DIQMTQSPSSLSASVGDRVTITCRASQSISSYLNWYQQKPGKAPKLLIYAASSLQSGVPSRFSGSGSGTDFTLTISSLQPEDFATYYCQQRYVFPPTFGGGTKVEIK

This assay deals with Polyspecificity reagent (PSR): biotinylated soluble membrane proteins of CHO cells. Nature of the assay: flow cytometry, biotinylated PSR on IgG-presenting yeast.
B1 gave a Polyspecificity Reagent (PSR) Score (0-1) of 0 score 0-1.

The molecule B2 registered a Polyspecificity Reagent (PSR) Score (0-1) of 0 score 0-1.

Molecule B3 had a Polyspecificity Reagent (PSR) Score (0-1) of 0 score 0-1.

Molecule B4 registered a Polyspecificity Reagent (PSR) Score (0-1) of 0 score 0-1.

For B5, the Polyspecificity Reagent (PSR) Score (0-1) is 0.1 score 0-1.

With B6, the Polyspecificity Reagent (PSR) Score (0-1) was found to be 0 score 0-1.

B7: the Polyspecificity Reagent (PSR) Score (0-1) was determined as 0.12 score 0-1.

Molecule B8 displayed a Polyspecificity Reagent (PSR) Score (0-1) of 0.32 score 0-1.

As for B9, the Polyspecificity Reagent (PSR) Score (0-1) came to 0.12 score 0-1.

Consider B10, for which the Polyspecificity Reagent (PSR) Score (0-1) is 0.01 score 0-1.
